Experimental data from patent publication US20130209454A1.
Residue numbers refer to the chain shown, from its start. Names and notes keep the numbering of the source.

Columns and labels:
Assay in all cases: cell-based or functional assay
[1] = molecular target: HIV-1 Env of strain 1006_11_C3_1601 (HIV-1)
[2] = molecular target: HIV-1 Env of strain 1056_10_TA11_1826 (HIV-1)
[3] = molecular target: HIV-1 Env of strain 3103.v3.c10 (HIV-1)
[4] = molecular target: HIV-1 Env of strain 620345.c01 (HIV-1)
[5] = molecular target: HIV-1 Env of strain 6480.v4.c25 (HIV-1)
[6] = molecular target: HIV-1 Env of strain 928-28 (HIV-1)
[7] = molecular target: HIV-1 Env of strain C1080.c03 (HIV-1)
[8] = molecular target: HIV-1 Env of strain C3347.c11 (HIV-1)
[9] = molecular target: HIV-1 Env of strain CNE58 (HIV-1)
[10] = molecular target: HIV-1 Env of strain Ce0393_C3 (HIV-1)
[11] = molecular target: HIV-1 Env of strain Ce1176_A3 (HIV-1)
[12] = molecular target: HIV-1 Env of strain Ce2010_F5 (HIV-1)
[13] = molecular target: HIV-1 Env of strain Du172.17 (HIV-1)
[14] = molecular target: HIV-1 Env of strain Q259.d2.17 (HIV-1)
[15] = molecular target: HIV-1 Env of strain R1166.c01 (HIV-1)
[16] = molecular target: HIV-1 Env of strain T250-4 (HIV-1)
[17] = molecular target: HIV-1 Env of strain T278-50 (HIV-1)
[18] = molecular target: HIV-1 Env of strain TROJO4551.58 (HIV-1)
[19] = molecular target: HIV-1 Env of strain WITO4160.33 (HIV-1)
[20] = molecular target: HIV-1 Env of strain ZM214M.PL15 (HIV-1)
[21] = molecular target: HIV-1 Env of strain ZM233M.PB6 (HIV-1)
[22] = molecular target: HIV-1 Env of strain ZM247v1(Rev-) (HIV-1)
[23] = molecular target: HIV-1 strain 0330.v4.c3 envelope (gp120) (HIV-1)
[24] = molecular target: HIV-1 strain 0815.v3.c3 envelope (gp120) (HIV-1)
[25] = molecular target: HIV-1 strain 1056_10_TA11_1826 envelope (gp120) (HIV-1)
[26] = molecular target: HIV-1 strain 211-9 envelope (gp120) (HIV-1)
[27] = molecular target: HIV-1 strain 231966.c02 envelope (gp120) (HIV-1)
[28] = molecular target: HIV-1 strain 3016.v5.c45 envelope (gp120) (HIV-1)
[29] = molecular target: HIV-1 strain 62357_14_D3_4589 envelope (gp120) (HIV-1)
[30] = molecular target: HIV-1 strain 6545.v4.c1 envelope (gp120) (HIV-1)
[31] = molecular target: HIV-1 strain CAAN5342.A2 envelope (gp120) (HIV-1)
[32] = molecular target: HIV-1 strain CAP210.2.00.E8 envelope (gp120) (HIV-1)
[33] = molecular target: HIV-1 strain CNE17 envelope (gp120) (HIV-1)
[34] = molecular target: HIV-1 strain HIV-16845-2.22 envelope (gp120) (HIV-1)
[35] = molecular target: HIV-1 strain P1981_C5_3 envelope (gp120) (HIV-1)
[36] = molecular target: HIV-1 strain Q461.e2 envelope (gp120) (HIV-1)
[37] = molecular target: HIV-1 strain R1166.c01 envelope (gp120) (HIV-1)
[38] = molecular target: HIV-1 strain REJO4541.67 envelope (gp120) (HIV-1)
[39] = molecular target: HIV-1 strain T250-4 envelope (gp120) (HIV-1)
[40] = molecular target: HIV-1 strain T251-18 envelope (gp120) (HIV-1)
[41] = molecular target: HIV-1 strain T278-50 envelope (gp120) (HIV-1)
[42] = molecular target: HIV-1 strain THRO4156.18 envelope (gp120) (HIV-1)
[43] = molecular target: HIV-1 strain WEAU_d15_410_787 envelope (gp120) (HIV-1)
[44] = molecular target: HIV-1 strain X1193_c1 envelope (gp120) (HIV-1)
[45] = molecular target: HIV-1 strain X2131_C1_B5 envelope (gp120) (HIV-1)
[46] = molecular target: HIV-1 strain ZM233M.PB6 envelope (gp120) (HIV-1)
[47] = molecular target: HIV-1 strain ZM247v1(Rev-) envelope (gp120) (HIV-1)
[48] = molecular target: HIV-1 strain ZM249M.PL1 envelope (gp120) (HIV-1)
[49] = molecular target: HIV-1 strain ZM53M.PB12 envelope (gp120) (HIV-1)

B1: NIH45-46^G54Y IgG (antibody, name in Kabat numbering, V domains shown)
VH: QVRLSQSGGQMKKPGESMRLSCRASGYEFLNCPINWIRLAPGRRPEWMGWLKPRYGAVNYARKFQGRVTMTRDVYSDTAFLELRSLTSDDTAVYFCTRGKYCTARDYYNWDFEHWGRGAPVTVSS
VL: EIVLTQSPATLSLSPGETAIISCRTSQSGSLAWYQQRPGQAPRLVIYSGSTRAAGIPDRFSGSRWGADYNLSISNLESGDFGVYYCQQYEFFGQGTKVQVDI
[1]
  neutralization IC50: 5 ng/mL
[2]
  neutralization IC50: 0.044 µg/mL
[3]
  neutralization IC50: 0.3 µg/mL
[4]
  neutralization IC50: > 50 µg/mL
[5]
  neutralization IC50: 0.018 µg/mL
[6]
  neutralization IC50: 0.12 µg/mL
[7]
  neutralization IC50: 0.29 µg/mL
[8]
  neutralization IC50: 0.011 µg/mL
[9]
  neutralization IC50: 0.04 µg/mL
[10]
  neutralization IC50: 0.036 µg/mL
[11]
  neutralization IC50: 0.21 µg/mL
[12]
  neutralization IC50: 0.049 µg/mL
[13]
  neutralization IC50: > 50 µg/mL
[14]
  neutralization IC50: 9 ng/mL
[15]
  neutralization IC50: 0.24 µg/mL
[16]
  neutralization IC50: > 50 µg/mL
[17]
  neutralization IC50: > 50 µg/mL
[18]
  neutralization IC50: 0.03 µg/mL
[19]
  neutralization IC50: 0.03 µg/mL
[20]
  neutralization IC50: 0.06 µg/mL
[21]
  neutralization IC50: 0.16 µg/mL
[22]
  neutralization IC50: 0.42 µg/mL
[23]
  neutralization IC80: 0.09 µg/mL
[24]
  neutralization IC80: 15 ng/mL
[25]
  neutralization IC80: 0.189 µg/mL
[26]
  neutralization IC80: > 50 µg/mL
[27]
  neutralization IC80: 0.23 µg/mL
[28]
  neutralization IC80: > 50 µg/mL
[29]
  neutralization IC80: 0.09 µg/mL
[30]
  neutralization IC80: > 50 µg/mL
[31]
  neutralization IC80: 0.27 µg/mL
[32]
  neutralization IC80: > 50 µg/mL
[33]
  neutralization IC80: 0.264 µg/mL
[34]
  neutralization IC80: 2.75 µg/mL
[35]
  neutralization IC80: 0.09 µg/mL
[36]
  neutralization IC80: 0.103 µg/mL
[37]
  neutralization IC80: 0.84 µg/mL
[38]
  neutralization IC80: 0.02 µg/mL
[39]
  neutralization IC80: > 50 µg/mL
[40]
  neutralization IC80: 1.16 µg/mL
[41]
  neutralization IC80: > 50 µg/mL
[42]
  neutralization IC80: 2.14 µg/mL
[43]
  neutralization IC80: 8 ng/mL
[44]
  neutralization IC80: 0.024 µg/mL
[45]
  neutralization IC80: 0.39 µg/mL
[46]
  neutralization IC80: 0.78 µg/mL
[47]
  neutralization IC80: 3.57 µg/mL
[48]
  neutralization IC80: 11 ng/mL
[49]
  neutralization IC80: 0.22 µg/mL

B2: NIH45-46^G54W(HC), S28Y(LC) (antibody, V domains shown)
VH: B1 VH with Y55W
VL: B1 VL with S28Y
[1]
  IC50, pseudovirus neutralization: 9 ng/mL
[2]
  IC50, pseudovirus neutralization: 0.057 µg/mL
[3]
  IC50, pseudovirus neutralization: 0.181 µg/mL
[4]
  IC50, pseudovirus neutralization: > 50 µg/mL
[5]
  IC50, pseudovirus neutralization: 16 ng/mL
[6]
  IC50, pseudovirus neutralization: 0.045 µg/mL
[7]
  IC50, pseudovirus neutralization: 0.154 µg/mL
[8]
  IC50, pseudovirus neutralization: 7 ng/mL
[9]
  IC50, pseudovirus neutralization: 0.016 µg/mL
[10]
  IC50, pseudovirus neutralization: 0.046 µg/mL
[11]
  IC50, pseudovirus neutralization: 0.172 µg/mL
[12]
  IC50, pseudovirus neutralization: 0.03 µg/mL
[13]
  IC50, pseudovirus neutralization: 0.015 µg/mL
[14]
  IC50, pseudovirus neutralization: 1 ng/mL
[15]
  IC50, pseudovirus neutralization: 0.278 µg/mL
[16]
  IC50, pseudovirus neutralization: 1.55 µg/mL
[17]
  IC50, pseudovirus neutralization: > 50 µg/mL
[19]
  IC50, pseudovirus neutralization: 0.015 µg/mL
[20]
  IC50, pseudovirus neutralization: 0.036 µg/mL
[21]
  IC50, pseudovirus neutralization: 0.011 µg/mL
[22]
  IC50, pseudovirus neutralization: 0.001 µg/mL

B3: NIH45-46^G54W IgG (antibody, name in Kabat numbering, V domains shown)
VH: B1 VH with Y55W
VL: B1 VL
[1]
  neutralization IC50: < 1 ng/mL
[2]
  neutralization IC50: 0.024 µg/mL
[3]
  neutralization IC50: 0.2 µg/mL
[4]
  neutralization IC50: > 50 µg/mL
[5]
  neutralization IC50: 0.004 µg/mL
[6]
  neutralization IC50: 0.06 µg/mL
[7]
  neutralization IC50: 0.2 µg/mL
[8]
  neutralization IC50: < 0.001 µg/mL
[9]
  neutralization IC50: 0.02 µg/mL
[10]
  neutralization IC50: 0.013 µg/mL
[11]
  neutralization IC50: 0.16 µg/mL
[12]
  neutralization IC50: 0.038 µg/mL
[13]
  neutralization IC50: 3.65 µg/mL
[14]
  neutralization IC50: < 1 ng/mL
[15]
  neutralization IC50: 0.13 µg/mL
[16]
  neutralization IC50: 1.33 µg/mL
[17]
  neutralization IC50: > 50 µg/mL
[18]
  neutralization IC50: 0.01 µg/mL
[19]
  neutralization IC50: 0.01 µg/mL
[20]
  neutralization IC50: 0.03 µg/mL
[21]
  neutralization IC50: 0.02 µg/mL
[22]
  neutralization IC50: 0.32 µg/mL
[23]
  neutralization IC80: 0.11 µg/mL
[24]
  neutralization IC80: 3 ng/mL
[25]
  neutralization IC80: 0.16 µg/mL
[26]
  neutralization IC80: > 50 µg/mL
[27]
  neutralization IC80: 0.11 µg/mL
[28]
  neutralization IC80: 15.4 µg/mL
[29]
  neutralization IC80: 0.07 µg/mL
[30]
  neutralization IC80: > 50 µg/mL
[31]
  neutralization IC80: 0.21 µg/mL
[32]
  neutralization IC80: > 50 µg/mL
[33]
  neutralization IC80: 0.127 µg/mL
[34]
  neutralization IC80: 2.1 µg/mL
[35]
  neutralization IC80: 0.07 µg/mL
[36]
  neutralization IC80: 0.091 µg/mL
[37]
  neutralization IC80: 0.51 µg/mL
[38]
  neutralization IC80: 0.013 µg/mL
[39]
  neutralization IC80: 44.9 µg/mL
[40]
  neutralization IC80: 0.92 µg/mL
[41]
  neutralization IC80: > 50 µg/mL
[42]
  neutralization IC80: 1.81 µg/mL
[43]
  neutralization IC80: 3 ng/mL
[44]
  neutralization IC80: 0.009 µg/mL
[45]
  neutralization IC80: 0.24 µg/mL
[46]
  neutralization IC80: 0.11 µg/mL
[47]
  neutralization IC80: 2.6 µg/mL
[48]
  neutralization IC80: 7 ng/mL
[49]
  neutralization IC80: 0.16 µg/mL

B4: NIH45-46^G54W (antibody, V domains shown)
VH: B1 VH with Y55W
VL: B1 VL
[1]
  IC50, pseudovirus neutralization: 1 ng/mL
[2]
  IC50, pseudovirus neutralization: 0.024 µg/mL
[3]
  IC50, pseudovirus neutralization: 0.2 µg/mL
[4]
  IC50, pseudovirus neutralization: > 50 µg/mL
[5]
  IC50, pseudovirus neutralization: 4 ng/mL
[6]
  IC50, pseudovirus neutralization: 0.06 µg/mL
[7]
  IC50, pseudovirus neutralization: 0.2 µg/mL
[8]
  IC50, pseudovirus neutralization: 1 ng/mL
[9]
  IC50, pseudovirus neutralization: 0.02 µg/mL
[10]
  IC50, pseudovirus neutralization: 0.013 µg/mL
[11]
  IC50, pseudovirus neutralization: 0.16 µg/mL
[12]
  IC50, pseudovirus neutralization: 0.038 µg/mL
[13]
  IC50, pseudovirus neutralization: 3.65 µg/mL
[14]
  IC50, pseudovirus neutralization: 1 ng/mL
[15]
  IC50, pseudovirus neutralization: 0.13 µg/mL
[16]
  IC50, pseudovirus neutralization: 1.33 µg/mL
[17]
  IC50, pseudovirus neutralization: > 50 µg/mL
[19]
  IC50, pseudovirus neutralization: 0.01 µg/mL
[20]
  IC50, pseudovirus neutralization: 0.03 µg/mL
[21]
  IC50, pseudovirus neutralization: 0.02 µg/mL
[22]
  IC50, pseudovirus neutralization: 0.32 µg/mL
